In paper PMC8053128, “Structures of Neisseria gonorrhoeae MtrR-operator complexes reveal molecular mechanisms of DNA recognition and antibiotic resistance-conferring clinical mutations”:

Key:
[1] = biological target: T1, MtrR WT (Neisseria gonorrhoeae, UniProt P39897 1-210); test: fluorescence polarization; FP: 20 mM Tris-HCl pH 7.5, 100 mM NaCl, 2.5% glycerol, 1 mM TCEP, 1 ug BSA, 1 ug poly(dI-dC), 1 nM 5'-fluorescein DNA; temperature not stated; MtrR concentration as dimer; details: protein: recombinant; tags: N-terminal His6 removed by TEV (pMCSG7); chain copies: 2; label: 5'-fluorescein
[2] = biological target: MtrR G45D (Neisseria gonorrhoeae, UniProt P39897 1-210, G45D); test: as above; details: protein: recombinant; tags: N-terminal His6 removed by TEV (pMCSG7); chain copies: 2; label: 5'-fluorescein
[3] = biological target: MtrR T43A (Neisseria gonorrhoeae, UniProt P39897 1-210, T43A); test: as above; details: protein: recombinant; tags: N-terminal His6 removed by TEV (pMCSG7); chain copies: 2; label: 5'-fluorescein
[4] = biological target: MtrR G45A (Neisseria gonorrhoeae, UniProt P39897 1-210, G45A); test: as above; details: protein: recombinant; tags: N-terminal His6 removed by TEV (pMCSG7); chain copies: 2; label: 5'-fluorescein
[5] = biological target: MtrR A39T (Neisseria gonorrhoeae, UniProt P39897 1-210, A39T); test: as above; details: protein: recombinant; tags: N-terminal His6 removed by TEV (pMCSG7); chain copies: 2; label: 5'-fluorescein
[6] = biological target: MtrR R44A (Neisseria gonorrhoeae, UniProt P39897 1-210, R44A); test: as above; details: protein: recombinant; tags: N-terminal His6 removed by TEV (pMCSG7); chain copies: 2; label: 5'-fluorescein
[7] = biological target: T1, MtrR WT; test: fluorescence polarization; nonspecific binding only; FP: 20 mM Tris-HCl pH 7.5, 100 mM NaCl, 2.5% glycerol, 1 mM TCEP, 1 ug BSA, 1 ug poly(dI-dC), 1 nM 5'-fluorescein DNA; temperature not stated; MtrR concentration as dimer; details: protein: recombinant; tags: N-terminal His6 removed by TEV (pMCSG7); chain copies: 2; label: 5'-fluorescein
[8] = biological target: MtrR H105Y (Neisseria gonorrhoeae, UniProt P39897 1-210, H105Y); test: fluorescence polarization; FP: 20 mM Tris-HCl pH 7.5, 100 mM NaCl, 2.5% glycerol, 1 mM TCEP, 1 ug BSA, 1 ug poly(dI-dC), 1 nM 5'-fluorescein DNA; temperature not stated; MtrR concentration as dimer; details: protein: recombinant; tags: N-terminal His6 removed by TEV (pMCSG7); chain copies: 2; label: 5'-fluorescein
[9] = biological target: Semet-MtrR WT (Neisseria gonorrhoeae, UniProt P39897 1-210); test: X-ray crystallography; 2.6 A; 200 mM calcium acetate; FP: 20 mM Tris-HCl pH 7.5, 100 mM NaCl, 2.5% glycerol, 1 mM TCEP, 1 ug BSA, 1 ug poly(dI-dC), 1 nM 5'-fluorescein DNA; temperature not stated; MtrR concentration as dimer; details: protein: recombinant; tags: N-terminal His6 removed by TEV (pMCSG7); chain copies: 2
[10] = biological target: MtrR D79N (Neisseria gonorrhoeae, UniProt P39897 1-210, D79N); test: fluorescence polarization; FP: 20 mM Tris-HCl pH 7.5, 100 mM NaCl, 2.5% glycerol, 1 mM TCEP, 1 ug BSA, 1 ug poly(dI-dC), 1 nM 5'-fluorescein DNA; temperature not stated; MtrR concentration as dimer; details: protein: recombinant; tags: N-terminal His6 removed by TEV (pMCSG7); chain copies: 2; label: 5'-fluorescein
[11] = biological target: MtrR W49F (Neisseria gonorrhoeae, UniProt P39897 1-210, W49F); test: as above; details: protein: recombinant; tags: N-terminal His6 removed by TEV (pMCSG7); chain copies: 2; label: 5'-fluorescein
[12] = biological target: MtrR H50A (Neisseria gonorrhoeae, UniProt P39897 1-210, H50A); test: as above; details: protein: recombinant; tags: N-terminal His6 removed by TEV (pMCSG7); chain copies: 2; label: 5'-fluorescein
[13] = biological target: MtrR T11A (Neisseria gonorrhoeae, UniProt P39897 1-210, T11A); test: as above; details: protein: recombinant; tags: N-terminal His6 removed by TEV (pMCSG7); chain copies: 2; label: 5'-fluorescein
[14] = biological target: MtrR T43S (Neisseria gonorrhoeae, UniProt P39897 1-210, T43S); test: as above; details: protein: recombinant; tags: N-terminal His6 removed by TEV (pMCSG7); chain copies: 2; label: 5'-fluorescein

| Binder | Kd [1] | binding result [2] | binding result [3] | binding result [6] | Kd [8] | other results |
| --- | --- | --- | --- | --- | --- | --- |
| ApY 27mer (dsDNA) DNA 1: TACAATCGTGGTTGATTGTAAACGGCC DNA 2: GGCCGTTTACAATCAACCACGATTGTA | 293 ± 24 nM |  |  |  |  |  |
| mtrCDE 27mer (dsDNA) DNA 1: TTTTTATCCGTGCAATCGTGTATGTAT DNA 2: ATACATACACGATTGCACGGATAAAAA | 43 ± 4 nM |  |  |  |  |  |
| emrAB 22mer (dsDNA) DNA 1: AGTCGGCTATATCATTGCTGTC DNA 2: GACAGCAATGATATAGCCGACT |  | no binding | no binding | no binding |  | binding result [4]: no binding; binding result [5]: no binding; binding result [7]: no binding |
| GpY 27mer (dsDNA) DNA 1: TACATAGCTGGTGTTATGTAAACGGCC DNA 2: GGCCGTTTACATAACACCAGCTATGTA |  | no binding | no binding | no binding | 860 ± 80 nM | binding result [4]: no binding; binding result [5]: no binding; binding result [7]: no binding |
| rpoH 21mer (crystal) (dsDNA) DNA 1: TACATACGTGGTTGTATGTAA DNA 2: TTACATACAACCACGTATGTA |  |  |  |  |  | binding result [9]: binds |
| mtrCDE 21mer (dsDNA) DNA 1: TATCCGTGCAATCGTGTATGT DNA 2: ACATACACGATTGCACGGATA | 50 ± 4 nM | no binding | no binding | no binding | 640 ± 130 nM | binding result [10]: no binding; Kd [11]: 380 ± 44 nM; Kd [12]: 990 ± 100 nM; Kd [13]: 1080 ± 93 nM; Kd [5]: 170 ± 11 nM |
| rpoH 27mer (dsDNA) DNA 1: TACATACGTGGTTGTATGTAAACGGCC DNA 2: GGCCGTTTACATACAACCACGTATGTA | 8 ± 1 nM | no binding | no binding | no binding | 340 ± 57 nM | Kd [11]: 53 ± 3 nM; Kd [12]: 376 ± 35 nM; Kd [14]: 860 ± 180 nM; Kd [13]: 441 ± 37 nM; Kd [5]: 31 ± 3 nM |
